The values that follow come from patent US20090041783A1 (MOCHIDA PHARMACEUTICAL, published 2009).

In experiment [1] the target is T1, human GPVI extracellular region-human Fc fusion protein (hGPVI-hFc) (human).
T1 construct: Expressed in COS-1, purified on Protein A; also called GPVI-HHH-hFc; hGPVIHHH-hFc
The experiment in a line: ELISA of hybridoma culture supernatant on coated hGPVI-hFc (selection criterion). The method, then: Next, culture supernatant was added to each well and incubated at 37° C. for one hour. After incubation, the well was washed three times with the saline containing 0.05% Tween20. Peroxidase-labeled anti-mouse immunoglobulin antibody (DAKO, P260) was 1000-fold diluted with D-PBS containing 10% rabbit serum and added to each well at 50 μL. After incubation at 37° C. for one hour, washing in a similar manner was performed and TMB solution (BioFix) was added to each well. After ten minutes at room temperature, the reaction was terminated with 0.5 M sulfuric acid solution. Subsequently, absorbance at 450 nm was measured with the plate spectrophotometer (Multiscan JX, Dainippon Pharmaceutical). As a result, the cell whose culture supernatant reacted to hGPVI-hFc was selected and a cloning with limiting dilution method (“The Introduction to Monoclonal Antibody Experimental Procedure” written by Tamie Andoh and Takeshi Chiba (Kodansha, p 83)) was performed. Eight days later, screening was done in a similar manner and the antibody which reacts to hGPVI-hFc was selected.
After one week, hybridoma, which produces a desired antibody was screened using the binding property to hGPVI-hFc and hGPVI-mL9-hFc prepared in EXAMPLE 7 as an index. That is, the purified hGPVI-hFc or hGPVI-mL9-hFc, which was prepared in EXAMPLE 1, was diluted with D-PBS (pH7.4) to 1 μg/mL. And 50 μL/well of the solution was added to make hGPVI-hFc or hGPVI-mL9-hFc-coated plate using the same method as that of EXAMPLE 2. Next, a culture supernatant was added to each well, and after incubation at room temperature for one hour, by the same method as that of EXAMPLE 2, using peroxidase-labeled anti-mouse immunoglobulin antibody (DAKO, P260) a reaction was performed to measure an absorbance. As a result, the cell producing an antibody that binds to the purified hGPVI-hFc (absorbance: equal to or more than one), but not hGPVI-mL9-hFc (abdorbance: equal to or less than 0.5) was selected and cloned by the method described in EXAMPLE 2. Eight through ten days later, a screening was done as with the similar way to obtain a hybridoma producing an L9-specific mouse anti-human GPVI antibody. As with EXAMPLE 2B (3), the obtained hybridoma was cultured and a monoclonal antibody was purified. The sub-type of each antibody was determined using IsoStrip Mouse Monoclonal antibody Isotyping Kit (Roche).
(In an ELISA, binding on a coated surface is turned into a signal by an enzyme label.)

Experiment [2] concerns the target T1, human GPVI extracellular region-human …. As to the kind of experiment: competition ELISA on hGPVI-hFc plate; competitor: peroxidase-labelled F1232-37-2; +++ more than 50%, ++ 30-50%, + 10-30% inhibition. The procedure:
(§1) To analyze a property for each antibody obtained in EXAMPLE 13, binding to human GPVI-hFc, competition with F1232-37-2 described in EXAMPLE 4 and specificity for L9 loop were investigated. That is, as for the binding to human GPVI, according to the method of EXAMPLE 2, a binding activity to immobilized antigen was measured. For the binding activity, the range of absorbance from 0.5 to 1.0 is represented by “+”, from 1.0 to 2.0 by “++”, the range more than 2.0 by “+++”. The competitive test with F1232-37-2 was performed as follows. That is, according to the method by Nakane et al. (J. Histochem. Cytochem., 22, 1084, 1974), peroxidase (TOYOBO)-labeled F1232-37-2 antibody was prepared and an antibody concentration was calculated from the amount of the antibody used.
Next, by using the peroxidase-labeled antibody, the competitive test for a variety of purified antibody was performed. That is, 25 μL of the above labeled antibody and 25 μL of each purified antibody were added to well of hGP-hFc-immobilized plate. After incubation at 37° C. for one hour, the well was washed five times with the saline containing 0.05% Tween20, and the reaction mixture was developed with TMB solution (BioFix). After incubation at room temperature for 10 minutes, the reaction was terminated with 0.5 M sulfuric acid solution and an absorbance at 450 nm was measured with the plate spectrophotometer (Multi-Scan JX, Dainippon Pharmaceutical).

Experiment [3] has the same target. The experiment in a line: ELISA on immobilised hGPVI-hFc; + A450 0.5-1.0, ++ 1.0-2.0, +++ more than 2.0. The procedure:
The hGPVI-hFc prepared by EXAMPLE 1B was diluted with D-PBS to 2 μg/mL and added to immunoplate (Maxisorp NUNC) at 50 μL/well. After incubation at 37° C. for one hour, the well was washed five times with ion-exchanged water, and D-PBS (pH7.4) containing 2% StabilGuard (Surmodics) was added to each well in 100 μL for blocking. Next, culture supernatant was added to each well and incubated at 37° C. for one hour. After incubation, the well was washed three times with the saline containing 0.05% Tween20. Peroxidase-labeled anti-mouse immunoglobulin antibody (DAKO, P260) was 1000-fold diluted with D-PBS containing 10% rabbit serum and added to each well at 50 μL. After incubation at 37° C. for one hour, washing in a similar manner was performed and TMB solution (BioFix) was added to each well. After ten minutes at room temperature, the reaction was terminated with 0.5 M sulfuric acid solution. Subsequently, absorbance at 450 nm was measured with the plate spectrophotometer (Multiscan JX, Dainippon Pharmaceutical). As a result, the cell whose culture supernatant reacted to hGPVI-hFc was selected and a cloning with limiting dilution method (“The Introduction to Monoclonal Antibody Experimental Procedure” written by Tamie Andoh and Takeshi Chiba (Kodansha, p 83)) was performed. Eight days later, screening was done in a similar manner and the antibody which reacts to hGPVI-hFc was selected.
as §1

Experiment [4] shares this target. The experiment in a line: ELISA, collagen on plate, hGPVI-hFc plus antibody; +++ more than 50%, ++ 30-50%, + 10-30% inhibition.

A value given as a limit tells only on which side of the number the result lay.

T1 sequence (chain, as listed by the source limits assumed): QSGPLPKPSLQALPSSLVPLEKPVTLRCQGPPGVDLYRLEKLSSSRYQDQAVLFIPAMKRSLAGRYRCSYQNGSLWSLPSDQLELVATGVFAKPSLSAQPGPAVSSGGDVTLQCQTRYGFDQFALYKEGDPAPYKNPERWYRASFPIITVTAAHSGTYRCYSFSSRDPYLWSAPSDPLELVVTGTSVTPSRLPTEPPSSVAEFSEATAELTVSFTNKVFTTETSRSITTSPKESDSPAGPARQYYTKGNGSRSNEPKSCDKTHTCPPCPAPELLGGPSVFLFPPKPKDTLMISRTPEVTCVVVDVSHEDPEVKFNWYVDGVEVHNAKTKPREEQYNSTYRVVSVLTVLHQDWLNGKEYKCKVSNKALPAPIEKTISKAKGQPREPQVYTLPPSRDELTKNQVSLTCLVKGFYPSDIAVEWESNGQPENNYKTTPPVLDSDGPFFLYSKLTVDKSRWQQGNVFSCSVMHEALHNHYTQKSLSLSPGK

B1: F1251-1-1 (antibody, V domains shown)
VH: QVNLLQSGAALVKPGASVKLSCKASGYTFTDYYIHWVKQSHGKSLEWIGYINPNSGYTNYNEKFKSKATLTVDKSTNTAYMELSRLTSEDSATYYCTRCNSGYGDWFAYWGQGTLLTVSS
VL: DIQMTQSPPVLSASVGDRVTLSCKASQNINKNLDWYQQKHGEAPKLLIYYTNNLQTDIPSRFSGSGSGTDYTLTISSLQPEDVATFYCYQYNSGPGTFGAGTKLELKR
With B1, the absorbance was ≥ 1 absorbance in experiment [1] and 0.5 to 1 od in experiment [3]. For the same molecule, the percent inhibition in experiment [2] and in experiment [4] was 10 to 30% in each case.

B2: F1245-4-1 (antibody, V domains shown)
VH: QVQLQQPGAELVKPGASVKLSCKASGCTFTSYWMHWVKQRPGQGLEWIGMIHPNSDNTNYNEKFKSKATLTVDKSSSTAYMHLSSLTSEDSAVYYCATHYYDYVDYWGQGTTLTVSS
VL: NIVMTQTPKFLLVSAGDRVTITCKASQSVSNDVAWYQQKPGQSPKLLIYYASNRYTGVPDRFTGSGYGTDFTFTISTVQAEDLAVYFCQQDYSSPWTFGGGTKLEIKR
In the case of B2, the absorbance in experiment [1] was ≥ 1 absorbance; in experiment [3], > 2 od. Further, the figures for the percent inhibition in experiment [2] and in experiment [4] were 30 to 50% and 10 to 30%, respectively.

B3: F1249-18-2 (antibody, V domains shown)
VH: QVQLQQPGAELVKPGASVKLSCKASGYTFTSYWMHWLKQRPGQGLEWIGMIHPNSDITNYNEKFKNKATLTVDKSSSTAYMQLSSLTSEDSAVYYCARSGDYYAMDYWGQGTSVTVSS
VL: SIVMTQTPKFLLVSAGDRVTITCKASQSVSNDVAWYQQKPGQSPKLLIYYASNRYTGVPDRFTGSGYGTDFTFTISTVQAEDLAVYFCQQDYSSPPTFGGGTKLEIKR
Turning to B3, the absorbance is ≥ 1 absorbance in experiment [1] and > 2 od in experiment [3]. Further, the percent inhibition in experiment [2] is 30 to 50%; in experiment [4], > 50%.

B4: F1249-5-1 (antibody, V domains shown)
VH: QVQLQQPGAELVKPGASVKLSCKASGYTFTSYWMHWLKQRPGQGLEWIGMIHPNSDITNYNEKFKNKATLTVAKSSSTAYMQLSSLTSEDSAVYYCARLGDYYAMDYWGQGTSVTVSS
VL: SIVMTQTPKFLLVSAGDRVTITCKASQSVSNDVTWYQQKPGQSPKLLIYYASNRYTGVPDRFTGSGYGTDFTFTISTVQAEDLAVYFCQQDYSSPPTFGGGTKLEIKR
As for B4, the absorbance in experiment [1] is ≥ 1 absorbance; in experiment [3], 1 to 2 od. The percent inhibition in experiment [2] lay in the range of 30 to 50%; in experiment [4], 10 to 30%.

B5: F1257-3-1 (antibody, V domains shown)
VH: QVTLKESGPGMLQPSKTLSLTCSFSGFSLSTSGMVVSWIRQPSGKSLEWLAAIDWDGDKYYNPSLKSRLTVSKDTSNTQVFLKISSVDIADTATYYCARTPYYGYKEAYYFDYWGQGVKVTVSS
VL: DIQMTQSPASLSASLEEIVTITCKASRAIDDYLSWYQQKPGKSPQLLIYDATSLADGVPSRFSGSRSGTQYSLKISRPQVDDSGIYYCLQSYSTPWTFGGGTKLDLKR
On to B5, for which the absorbance in experiment [3] is > 2 od.

B6: F1249-3-2 (antibody, V domains shown)
VH: EVQLVESGGGLVKPGGSLKLSCAASGFTFSSYGMSWVRQTPDKRLEWVATISSGGSYTYYSDSVKGRFTISRDNAKNNLYLQLSSLKSQDTAIYYCARDSGYFDYWGQGTTLTVSS
VL: NIVLTQSPASLAVSLGQRATISCRASESVDSYGNSFMHWYQQKPGQPPKLLIYLASNLESGVPARFSGSGSRTDFTLTIDPVEADDAATYYCQQNNEDPRTFGGGTKLEIKR
On to B6, for which the absorbance in experiment [1] was ≥ 1 absorbance; in experiment [3], 0.5 to 1 od. For the same molecule, the percent inhibition is 30 to 50% in experiment [2] and 10 to 30% in experiment [4].

B7: F1246-1-1 (antibody, V domains shown)
VH: EVQLVESGGDLVKPGGSLKLSCAASGFTFSSYGMSWVRQTPDKRLEWVATISNGGTYTYYPDSVKGRFTISRDNAKNTLYLQMSSLKSDDTAMYYCGRLRDYYAMDYWGQGTSVTVSS
VL: DIVLTQSPASLAVSLGQRATISCRASESVDSYGNSFMHWYQQKPGQPPKLLIYRASNLESGIPARFSGSGSRTDFTLTINPVEADDVATYYCQQSNEDPWTFGGGTKLEIKR
Take B7: the figures for the absorbance in experiment [1] and in experiment [3] were ≥ 1 absorbance and 1 to 2 od, respectively. Further, in experiment [2], the percent inhibition lay in the range of 10 to 30%.

B8: F1249-30-1 (antibody, V domains shown)
VH: QVQLQQSGAELVRPGVSVKISCKGSGYTFTDYAMHWVKQSHAKSLEWIGVISTYYGDTSYNQKFKGKAAMTVDKSSSTAYMELARLTSDDSAIYYCARAEDYDPWFAYWGQGTLVTVSA
VL: DIVLTQSPASLAVSLGQRATISCRASESVDSYGNSFMHWYQQKPGQPPKLLIYRASNLESGIPARFSGSGSRTDFTLTINPVEADDVATYYCQQSDEDPLTFGAGTKLELKR
On to B8, for which the absorbance in experiment [1] is ≥ 1 absorbance; in experiment [3], > 2 od. In experiment [2], the percent inhibition was > 50%.

B9: F1249-22-1 (antibody, V domains shown)
VH: QVQLQQPGAELVKPGASVKLSCKASGYTFTSYWMQWVKERPGQGLEWIGEIDPSDSYTNYNQKFKGKATLTVDTSSSTACMQLSSLTSEDSAVYYCARGAITTATLDYWGQGTTLTVSS
VL: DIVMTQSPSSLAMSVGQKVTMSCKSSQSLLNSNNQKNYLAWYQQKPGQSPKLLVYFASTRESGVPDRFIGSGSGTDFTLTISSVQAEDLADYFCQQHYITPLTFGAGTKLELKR
On to B9, for which the absorbance in experiment [1] is ≥ 1 absorbance; in experiment [3] it was 0.5 to 1 od. The values for the percent inhibition in experiment [2] and in experiment [4] were 10 to 30% and 30 to 50%, respectively.

B10: F1245-7-1 (antibody, V domains shown)
VH: QVQLQQPGAELVKPGASVKLSCKASGYTFTSYWMHWVKQRPGQGLEWIGMIHPNSGSTNYNEKFKSKATLTVDKSSSTAYMQLSSLTSEDSAVYYCASPVTAVVEYYFDYWGQGTTLTVSS
VL: SIVMTQTPKFLLVSAGDRVTITCKASQSVSNDVAWYQQKPGQSPKLLIYYASNRYTGVPDRFTGSGYGTDFTFTISTVQAEDLAVYFCQQDYSSLTFGSGTKLEIKR
Take B10: the absorbance in experiment [1] is ≥ 1 absorbance; in experiment [3], 1 to 2 od. For the same molecule, in experiment [2], the percent inhibition lay in the range of 10 to 30%.

B11: F1249-20-1 (antibody, V domains shown)
VH: QVQLQQSGAELVRPGVSVKISCKGSGYTFTDYAMHWVKQSHAKSLEWIGVISTYYGDTSYNQKFKGKATMTVDKSSSTAYMELARLTSEDSAIYYCARAEDYDPWFAYWGQGTLVTVSA
VL: DIVLTQSPASLAVSLGQRATISCRASESVDSYGNSFMYWYQQKPGQPPKLLIYRASNLESGIPARFSGSGSRTDFTLTINPVEADDVATYYCQQSDEDPLTFGAGTKLELKR
In the case of B11, the absorbance was ≥ 1 absorbance in experiment [1] and > 2 od in experiment [3]. Further, the percent inhibition in experiment [2] is 30 to 50%.
